Experimental data as given in article PMC8409903.

Target: T1, mixed lineage kinase domain-like pseudokinase (MLKL) (human (endogenous in platelets)), Q8NB16
T1 chain: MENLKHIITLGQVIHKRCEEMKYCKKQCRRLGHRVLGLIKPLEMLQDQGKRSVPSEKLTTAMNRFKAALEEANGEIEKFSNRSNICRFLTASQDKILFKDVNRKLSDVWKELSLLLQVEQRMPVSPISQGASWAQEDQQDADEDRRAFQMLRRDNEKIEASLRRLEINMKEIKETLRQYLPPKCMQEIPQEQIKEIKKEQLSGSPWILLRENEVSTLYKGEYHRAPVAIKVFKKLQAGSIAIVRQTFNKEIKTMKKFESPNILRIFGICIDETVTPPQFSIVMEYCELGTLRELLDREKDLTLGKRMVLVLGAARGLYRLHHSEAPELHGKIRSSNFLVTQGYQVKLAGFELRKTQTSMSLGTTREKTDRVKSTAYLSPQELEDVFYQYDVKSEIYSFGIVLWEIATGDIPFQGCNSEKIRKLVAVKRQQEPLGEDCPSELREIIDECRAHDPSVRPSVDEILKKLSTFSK
Assay: western blot of platelets
Details: remark: other sources report otherwise

- stoichiometry N: 8
B1: mixed lineage kinase domain-like pseudokinase (MLKL), Q8NB16 1-471 (natural protein)
chain: T1 chain
